In patent US5462743A, “Substance transfer system for topical application” (Medipro Sciences Limited, priority 1993, dated 1995):
Several values for one entry are separate records, joined by “and”; a condition that tells them apart may be missing. Identical values can stand only once. Values belong to the compound of their own block, whether it stands above or below them.

Key:
cancerous body cells = details: subsequently converted into protoporphyrin IX; cited from earlier work
[1] = In vitro permeation through intact skin, patch of FIGS. 14 and 15 (Example 6); assay type: in vitro ADME, Hairless Guinea Pig
Method: (§1) The wells were filled with porous plastic.
In addition to the transdermal patches using porous plastic depots as described in Example 5, patches containing fibrous depots were also tested. The fibrous depots, also measured 3 mm in length were cut from an aligned bonded cellulose acetate rod, 3 mm in diameter (R14236 from American Filtrona Co.).

[2] = In vitro skin permeation, patch of FIG. 3 (Example 4); assay type: in vitro ADME, Hairless Guinea Pig; details: porous plastic depots
Text: […] […] Duplicate samples of each test compound were run.
skin compatible adhesive, H-566 coated onto a white polyethylene closed cell foam, 0.8 mm thick (Dermaflex PEF 32-W H-566 from Flexcon Company, Inc.) was used, perforated with an array of 69 cylindrical channels approximately 0.84 mm in diameter;
the channels were not lined; instead they were filled with cylindrical sections of porous plastic material (Hydrophilic HDPE with medium pore size, NO. X-4899, Porex Technologies);
the silicone sealant was absent; a reservoir support layer consisting of 1.6 mm thick sheet of porous plastic material, 2.0 cm in diameter (Hydrophilic HDPE with coarse pore size, NO. X-4916, Porex Technologies) was placed directly above the array of 69 channels;
Some variability in results, as between attempted duplicates, was observed, largely attributable to uncertain intimate contact between the reservoir and the skin contacting matrices.

[3] = In vitro skin permeation, patch of FIG. 2 (Example 1); details: compromised skin, 37° C, contact area 0.21 cm^2, about 1 mg loaded, less than ideal intimate contact
Text: (§2) The skin penetration of model compounds from a transdermal patch constructed according to FIG. 2 was established in vitro by a permeation study. […] The array measured 1.7×1.7 cm and was centrally located. […] On this outer surface of the adhesive layer, but between the slightly protruding silicone tubing was cast a 30% solution of silicone sealant in hexane. The channels were filled with filaments of open cell polyurethane foam. On top of the dry silicone layer was placed a reservoir support layer consisting of a 1.5 mm thick sheet of the same open-cell polyurethane foam, 2.0 cm in diameter. The outer, barrier layer of the patch was a 3.5 cm diameter section of DERMAFLEX V-300-F FLESH (vinyl coated with a medical grade acrylic adhesive, FLEXCON Company). The reservoir and channels of the patch were loaded with a solution which contained a fluorescently labelled model compound (polypeptides or polysaccharide). […] The sections of modified skin (stratum corneum removed) were excised from the Hairless Guinea Pig and mounted on the diffusion cell above a solution of isotonic saline such that the dermal side of skin was in contact with the magnetically stirred receptor liquid. The device was brought into intimate contact with the epidermal surface of the skin. The effective contact area of the solution with the skin through the channels was 0.21 cm^2. […]

[4] = In vitro skin permeation, patch of FIGS. 14 and 15, dried drug matrix (Example 7); assay type: in vitro ADME, Hairless Guinea Pig; details: freeze dried depots, porous plastic matrix
Text: as §1
The drug depots were hydrated with a suitable solubilizing solution just before the start of the permeation study, as illustrated in FIG. 6.

[5] = In vitro skin permeation, patch of FIGS. 14 and 15, liquid reservoir (Example 5); assay type: in vitro ADME, Hairless Guinea Pig; details: porous plastic depots, contact area 1.1 cm^2
[6] = in vivo; cited from earlier work
[7] = In vitro skin permeation, patch of FIG. 2 with H566 adhesive (Example 2); details: compromised skin, approximately 1 mg loaded, intimate contact maintained
Text: as §2

[8] = in the bloodstream; cited from earlier work

Compound: NCC(=O)CCC(=O)O [5-aminolevulinic acid]
absorption by cancerous body cells (cancerous body cells): preferentially absorbed by cancerous body cells

Amount Permeated (Cumulative) ([1]; fibrous matrix, 8 hrs): 0.19 Micrograms and 0.34 Micrograms
Amount Permeated (Cumulative) ([1]; fibrous matrix, 24 hrs): 1.74 Micrograms and 2.93 Micrograms
Amount Permeated (Cumulative) ([1]; fibrous matrix, 48 hrs): 2.99 Micrograms and 4.83 Micrograms
Amount Permeated (Cumulative) ([1]; porous plastic matrix, 8 hrs): 1.01 Micrograms and 1.03 Micrograms
Amount Permeated (Cumulative) ([1]; porous plastic matrix, 24 hrs): 6.14 Micrograms and 6.87 Micrograms
Amount Permeated (Cumulative) ([1]; porous plastic matrix, 48 hrs): 9.90 Micrograms and 10.69 Micrograms
Compound: C[C@]12CC[C@@H]3c4ccc(O)cc4CC[C@H]3[C@@H]1CC[C@@H]2O [Estradiol, estradiol]

Compound: Casein
Amount Permeated in 20 Hrs. [2]: 75.98 Micrograms and 104.98 Micrograms
Amount Permeated in 20 Hrs. [3]: 0.05 Micrograms and 0.03 Micrograms

Compound: Cytochrome C: carbon-14 labelled model compound, polypeptide, 12,300, from horse heart
Amount Permeated (Cumulative) ([4]; 4 hrs): 40.4 Micrograms
Amount Permeated (Cumulative) ([4]; 8 hrs): 124.2 Micrograms and 119.9 Micrograms
Amount Permeated (Cumulative) ([4]; 24 hrs): 412.6 Micrograms and 363.1 Micrograms
Amount Permeated (Cumulative) ([4]; 48 hrs): 642.7 Micrograms and 560.6 Micrograms
Amount Permeated (Cumulated) ([5]; 4 hrs): 117.8 micrograms and 103.4 micrograms
Amount Permeated (Cumulated) ([5]; 8 hrs): 257.5 micrograms and 239.8 micrograms
Amount Permeated (Cumulated) ([5]; 24 hrs): 581.6 micrograms and 572.6 micrograms
Amount Permeated (Cumulated) ([5]; 48 hrs): 740.0 micrograms and 728.3 micrograms

Compound: Hyaluronic acid [HA]
accumulation in HA-depleted areas [6]: preferentially accumulates in these depleted areas

Compound: Insulin
Amount Permeated in 20 Hrs. [2]: 41.96 Micrograms and 22.78 Micrograms
Amount Permeated in 20 Hrs. [7]: 10.85 Micrograms and 8.30 Micrograms
Amount Permeated in 20 Hrs. [3]: 0.04 Micrograms and 0.05 Micrograms

Compound: human growth hormone: polypeptide drug, human growth hormone (22,000 daltons)
half-life [8]: less than 25 minutes

Compound: parathyroid hormone: polypeptide drug, parathyroid hormone (9,500 daltons)
half-life [8]: less than 15 minutes
